Reference: patent EP4676958A2 (dated 2026)

Target: T1, active human KLK7 (human, UniProt P49862 30-253)
T1 construct: mature; also called hKLK7; active form of hKLK7
Assay: SPR, antibody captured on Protein A chip, 20 nM hKLK7 (FIG. 11A, 11F)

T1 sequence (P49862 30-253): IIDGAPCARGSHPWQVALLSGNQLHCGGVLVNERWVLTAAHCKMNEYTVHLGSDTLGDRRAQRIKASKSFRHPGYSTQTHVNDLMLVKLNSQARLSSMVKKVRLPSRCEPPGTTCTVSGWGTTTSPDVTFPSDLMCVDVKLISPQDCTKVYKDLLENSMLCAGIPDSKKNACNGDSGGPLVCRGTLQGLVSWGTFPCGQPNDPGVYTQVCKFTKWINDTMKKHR

B1: KLK7-L1-Ab8 (antibody, V domains shown)
VH: QVQLVQSGAEVKKPGASVKVSCKASGYTFTSEGIHWVRQAPGQGLEWMGSISASSGDTNYAQKLQGRVTMTTDTSTSTAYMELRSLRSDDTAVYYCARSAGYGARHWYFDLWGQGTMVTVSS
VL: DIQMTQSPSSLSASVGDRVTITCRASQSISSYLNWYQQKPGKAPKLLIYGASSLQSGVPSRFSGSGSGTDFTLTISSLQPEDFATYYCDQWYSTPPITFGGGTKVEIK
notes: captured on Protein A; also called KLK7-Ll-Ab8; KLK7- Ll-Ab8
B1: binds.
